From article PMC10786891, “Massively parallel profiling of RNA-targeting CRISPR-Cas13d” come the findings set out here.

Sequences and labels used below:
B1: target 1 G5C,G12U (mixed)
RNA 1: CACCCGUGCAAAAAUGCAGGGGUCUAAAACUGAGCGGAUAACCUCUCUAUGG
RNA 2: GGGAAUGGAUCCACAUCUACGAAUUCGUACCAUAGAGAGUUUAUCCCCUCACCGAGAUCGGAAGAGCACACGU
B2: target 1 insC 3' of 17,insG 3' of 16 (mixed)
RNA 1: B1 RNA 1
RNA 2: GGGAAUGGAUCCACAUCUACGAAUUCGUACCAUAGCAGGAGGUUAUCCGCUCACCGAGAUCGGAAGAGCACACGU
B3: target 1 insA 3' of 22,insC 3' of 10 (mixed)
RNA 1: B1 RNA 1
RNA 2: GGGAAUGGAUCCACAUCUACGAAUUCGUACACAUAGAGAGGUUCAUCCGCUCACCGAGAUCGGAAGAGCACACGU
B4: target 1 insC 3' of 5,insG 3' of 4 (mixed)
RNA 1: B1 RNA 1
RNA 2: GGGAAUGGAUCCACAUCUACGAAUUCGUACCAUAGAGAGGUUAUCCGCCGUCACCGAGAUCGGAAGAGCACACGU
B5: target 1 insA 3' of 11,insU 3' of 7 (mixed)
RNA 1: B1 RNA 1
RNA 2: B4 RNA 2 with U42A, A43U, U44A, C45U, G47U, C49G, G50C
B6: target 1 insU 3' of 9,insC 3' of 8 (mixed)
RNA 1: B1 RNA 1
RNA 2: B4 RNA 2 with C45U, G47C, C49G, G50C
B7: target 1 insU 3' of 12,insA 3' of 11 (mixed)
RNA 1: B1 RNA 1
RNA 2: B4 RNA 2 with C45A, C46U, G47C, C49G, G50C
B8: target 1 C6U,A20C (mixed)
RNA 1: B1 RNA 1
RNA 2: B1 RNA 2 with A32C, U40G, C46U, C47G
B9: target 1 U19A,C21U (mixed)
RNA 1: B1 RNA 1
RNA 2: B1 RNA 2 with C31U, U33A, U40G, C47G
B10: target 1 insC 3' of 13,insC 3' of 12 (mixed)
RNA 1: B1 RNA 1
RNA 2: B2 RNA 2 with C36A, A37G, G38A, A40C, G42C
B11: target 1 insA 3' of 7,insA 3' of 4 (mixed)
RNA 1: B1 RNA 1
RNA 2: B4 RNA 2 with C46A, G47C, C48G, G50A
B12: target 1 A9U,U19G (mixed)
RNA 1: B1 RNA 1
RNA 2: B1 RNA 2 with U33G, U40G, A43U, C47G
B13: target 1 C4A,U10G (mixed)
RNA 1: B1 RNA 1
RNA 2: B1 RNA 2 with U40G, U42G, C47G, C48A
B14: target 1 C2G,G13A (mixed)
RNA 1: B1 RNA 1
RNA 2: B1 RNA 2 with G39A, U40G, C47G, C50G
B15: target 1 insG 3' of 4,insU 3' of 4 (mixed)
RNA 1: B1 RNA 1
RNA 2: B4 RNA 2 with C49G, G50U
B16: target 1 insG 3' of 9,insC 3' of 9 (mixed)
RNA 1: B1 RNA 1
RNA 2: B4 RNA 2 with U44G, C46U, G47C, C49G, G50C
B17: target 1 A9U,U11C (mixed)
RNA 1: B1 RNA 1
RNA 2: B1 RNA 2 with U40G, U41C, A43U, C47G
B18: target 1 U8G,G15U (mixed)
RNA 1: B1 RNA 1
RNA 2: B1 RNA 2 with G37U, U40G, U44G, C47G
B19: target 1 insU 3' of 12,insC 3' of 9 (mixed)
RNA 1: B1 RNA 1
RNA 2: B4 RNA 2 with A43U, U44A, C46U, G47C, C49G, G50C
B20: target 1 insU 3' of 14,insG 3' of 7 (mixed)
RNA 1: B1 RNA 1
RNA 2: B4 RNA 2 with G39U, U41G, A43U, U44A, C45U, C49G, G50C
B21: target 1 insG 3' of 16,insU 3' of 15 (mixed)
RNA 1: B1 RNA 1
RNA 2: B2 RNA 2 with C36A, A37G, G39U
B22: target 1 U3C (mixed)
RNA 1: B1 RNA 1
RNA 2: B1 RNA 2 with U40G, C47G, U49C
B23: target 1 G15A,A18C (mixed)
RNA 1: B1 RNA 1
RNA 2: B1 RNA 2 with A34C, G37A, U40G, C47G
B24: target 1 insA 3' of 2 (mixed)
RNA 1: B1 RNA 1
RNA 2: GGGAAUGGAUCCACAUCUACGAAUUCGUACCAUAGAGAGGUUAUCCGCUCAACCGAGAUCGGAAGAGCACACGU
B25: target 1 insC 3' of 8,insG 3' of 7 (mixed)
RNA 1: B1 RNA 1
RNA 2: B4 RNA 2 with C49G, G50C
B26: target 1 G5A,U11C (mixed)
RNA 1: B1 RNA 1
RNA 2: B1 RNA 2 with U40G, U41C, C47A
B27: target 1 complement block 3-11 (mixed)
RNA 1: B1 RNA 1
RNA 2: B1 RNA 2 with U40G, U41A, U42A, A43U, U44A, C45G, C46G, C48G, U49A
B28: target 1 insC 3' of 22,insC 3' of 20 (mixed)
RNA 1: B1 RNA 1
RNA 2: B2 RNA 2 with A32C, U33A, A34C, G35U, C36A, A37G, G38A
B29: target 1 insU 3' of 1 (mixed)
RNA 1: B1 RNA 1
RNA 2: B24 RNA 2 with A52U
B30: target 1 insC 3' of 15,insU 3' of 15 (mixed)
RNA 1: B1 RNA 1
RNA 2: B2 RNA 2 with C36A, A37G, G38C, G39U
B31: target 1 insG 3' of 21,insG 3' of 21 (mixed)
RNA 1: B1 RNA 1
RNA 2: B2 RNA 2 with A32G, U33G, G35U, C36A, A37G, G38A
B32: target 1 insU 3' of 17,insC 3' of 9 (mixed)
RNA 1: B1 RNA 1
RNA 2: B2 RNA 2 with C36U, G39A, A40G, G42U, U44A, A45C

Residue numbers refer to the chain shown, from its start. Names may count otherwise.

The data set concerns the target T1, EsCas13d, nuclease-dead (Eubacterium siraeum, UniProt B0MS50, R295A;H300A;R849A;H854A).
T1 sequence: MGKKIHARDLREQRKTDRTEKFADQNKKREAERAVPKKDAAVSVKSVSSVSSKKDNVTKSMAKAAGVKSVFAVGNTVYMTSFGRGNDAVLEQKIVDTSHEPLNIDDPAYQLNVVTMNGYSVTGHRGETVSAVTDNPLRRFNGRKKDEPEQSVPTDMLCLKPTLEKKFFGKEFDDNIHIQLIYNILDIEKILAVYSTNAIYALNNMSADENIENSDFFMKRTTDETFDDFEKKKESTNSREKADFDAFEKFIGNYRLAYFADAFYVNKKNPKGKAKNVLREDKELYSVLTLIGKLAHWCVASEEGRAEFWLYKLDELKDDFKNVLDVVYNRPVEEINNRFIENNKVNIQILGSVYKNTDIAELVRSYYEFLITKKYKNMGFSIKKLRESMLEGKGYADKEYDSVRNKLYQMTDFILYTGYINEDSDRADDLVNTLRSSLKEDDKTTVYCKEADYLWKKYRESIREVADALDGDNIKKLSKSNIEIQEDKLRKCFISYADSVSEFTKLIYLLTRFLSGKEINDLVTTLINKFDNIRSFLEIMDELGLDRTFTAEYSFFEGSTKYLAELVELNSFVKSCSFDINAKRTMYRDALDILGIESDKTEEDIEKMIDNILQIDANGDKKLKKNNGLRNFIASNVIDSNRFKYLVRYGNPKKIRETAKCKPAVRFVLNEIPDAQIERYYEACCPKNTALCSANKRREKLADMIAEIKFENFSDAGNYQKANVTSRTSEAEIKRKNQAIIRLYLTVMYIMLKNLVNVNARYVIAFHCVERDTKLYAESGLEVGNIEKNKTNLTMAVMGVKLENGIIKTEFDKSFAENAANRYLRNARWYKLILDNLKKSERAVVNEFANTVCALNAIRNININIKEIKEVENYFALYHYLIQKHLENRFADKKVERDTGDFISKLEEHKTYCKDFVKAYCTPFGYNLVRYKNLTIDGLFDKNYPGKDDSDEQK
Kind of data set: crRNA (strand 1, pre-loaded); Mg2+; 40 mM Tris-HCl pH 7.5, 150 mM NaCl, 6 mM MgCl2, 1 mM DTT, 0.1% Tween-20, 0.2 mg/ml BSA; 25 C; 10 min per concentration, then washed. The following applies: tags: His6-TwinStrep-SUMO cleaved; N-terminal SNAP kept (SNAP-Surface 488); label: 3' end held by stalled T7 RNA polymerase.
Broadly, the Kd is the equilibrium constant for the complex coming apart. Lower therefore signals higher affinity. Take B1: binding was put at a Kd of 8.7 ± 0.6 nM.

Turning to B2, the Kd came to 64 ± 6 nM. In turn, B3 returned a Kd of 29 ± 4 nM. B4 showed a Kd of 9.2 ± 0.8 nM. Against the preceding molecule, the Kd is about 3.2-fold lower.

B5 had an equilibrium dissociation constant (Kd) of 48 ± 5 nM.

B6 showed a Kd of 42 ± 10 nM.

In turn, B7 came in with a Kd of 13 ± 0.9 nM. Against the preceding molecule, the Kd is about 3.2-fold lower. In the case of B8 it was 100 ± 50 nM; in that of B9, 10.3 ± 1 nM.

In the case of B10, the Kd stood at 17.7 ± 1.2 nM. Against the preceding molecule, the Kd is about 1.7-fold higher. Molecule B11 displayed a Kd of 4.53 ± 0.23 nM. For B12, the dissociation constant Kd was 72 ± 9 nM. Next, B13: 10.1 ± 0.9 nM; B14: 5.4 ± 0.6 nM. Turning to B15, the Kd was determined as 7 ± 0.4 nM.

Take B16: the Kd came to 17.2 ± 0.7 nM. This Kd lies about 2.5-fold higher than the previous one.

Molecule B17 returned a Kd of 13 ± 1 nM. For B18, binding was characterised by a dissociation constant (Kd) of 73 ± 12 nM. Next, B19: 11.6 ± 0.6 nM. Molecule B20 showed a Kd of 29.3 ± 1.7 nM. In the case of B21 it was 26 ± 4 nM.

For B22, the Kd turned out to be 26.3 ± 3.2 nM.

The molecule B23 came in with a Kd of 81 ± 15 nM.

In turn, B24 gave a Kd of 8.5 ± 0.5 nM. Compared with the last molecule, the Kd is about 9.5-fold lower.

In turn, B25 gave a Kd of 10.3 ± 0.9 nM. In turn, B26 displayed a Kd of 34 ± 4 nM. This Kd lies about 3.3-fold higher than the previous one. In the case of B27, the Kd stood at 13 ± 0.6 nM. Next, B28: 13.3 ± 1.7 nM; B29: 9.6 ± 0.4 nM; B30: 23.3 ± 1.1 nM. As to B31, binding was characterised by a dissociation constant (Kd) of 87 ± 24 nM. Regarding B32, the Kd was found to be 25.1 ± 1.6 nM.
